Data taken from patent publication US20160355553A1 (Janssen / Centocor, published 2016).
Changes are numbered by the printed parent chain.

T1: FL4-06 B-m2-CL1+5-GCN4b (influenza B virus, UniProt P03461 6-574)
T1 chain: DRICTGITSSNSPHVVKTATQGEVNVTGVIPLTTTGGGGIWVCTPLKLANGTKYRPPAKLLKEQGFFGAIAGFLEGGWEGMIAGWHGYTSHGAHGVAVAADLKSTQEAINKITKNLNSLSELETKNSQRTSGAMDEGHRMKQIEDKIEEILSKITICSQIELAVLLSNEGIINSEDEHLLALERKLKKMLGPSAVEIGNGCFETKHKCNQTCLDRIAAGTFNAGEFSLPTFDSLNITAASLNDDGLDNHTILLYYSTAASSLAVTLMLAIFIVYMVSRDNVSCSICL

T2: FL4-06 B-m2-CL1+5-GCN4a (influenza B virus, UniProt P03461 6-574)
T2 chain: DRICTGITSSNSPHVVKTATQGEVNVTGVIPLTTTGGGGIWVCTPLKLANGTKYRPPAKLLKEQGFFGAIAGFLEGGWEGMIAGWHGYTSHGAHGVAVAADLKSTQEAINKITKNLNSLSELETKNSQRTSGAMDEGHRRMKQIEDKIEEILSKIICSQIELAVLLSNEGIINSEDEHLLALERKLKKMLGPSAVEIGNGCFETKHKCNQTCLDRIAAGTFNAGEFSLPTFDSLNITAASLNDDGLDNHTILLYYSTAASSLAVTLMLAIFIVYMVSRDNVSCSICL

T3: Mal2506-04 B-m2-CL1+5-GCN4a (influenza B virus, UniProt P03461 6-574)
T3 chain: T2 chain with N222D, L268I, I272V

T4: Mal2506-04 B-m2 (influenza B virus, UniProt P03461 6-574)
T4 chain: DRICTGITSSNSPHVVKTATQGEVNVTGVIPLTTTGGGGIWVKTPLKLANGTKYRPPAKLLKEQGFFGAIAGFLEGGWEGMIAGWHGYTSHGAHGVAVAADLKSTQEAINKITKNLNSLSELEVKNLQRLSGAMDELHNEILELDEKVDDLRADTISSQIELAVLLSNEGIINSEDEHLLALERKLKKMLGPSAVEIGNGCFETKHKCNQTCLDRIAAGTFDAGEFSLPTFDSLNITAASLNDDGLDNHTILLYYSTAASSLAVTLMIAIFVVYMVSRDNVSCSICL

T5: FL4-06 B-m2-CL1+5 (influenza B virus, UniProt P03461 6-574)
T5 chain: T4 chain with K43C, V124T, L127S, L130T, L137G, S157C, D222N, I268L, V272I

T6: Mal2506-04 B-m2-CL1+5-GCN4b (influenza B virus, UniProt P03461 6-574)
T6 chain: T1 chain with N222D, L268I, I272V

T7: Mal2506-04 B-m2-CL1+5 (influenza B virus, UniProt P03461 6-574)
T7 chain: T4 chain with K43C, V124T, L127S, L130T, L137G, S157C

B1: CR9114 (antibody, V domains shown)
VH: QVQLVQSGAEVKKPGSSVKVSCKSSGGTSNNYAISWVRQAPGQGLDWMGGISPIFGSTAYAQKFQGRVTISADIFSNTAYMELNSLTSEDTAVYFCARHGNYYYYSGMDVWGQGTTVTVSS
VL: SYVLTQPPAVSGTPGQRVTISCSGSDSNIGRRSVNWYQQFPGTAPKLLIYSNDQRPSVVPDRFSGSKSGTSASLAISGLQSEDEAEYYCAAWDDSLKGAVFGGGTQLTVL
B2: CR8057 (antibody, V domains shown)
VH: EVQLVESGGGLVQPGGSLRLSCAASGFTDSVIFMSWVRQAPGKGLECVSIIYIDDSTYYADSVKGRFTISRHNSMGTVFLEMNSLRPDDTAVYYCATESGDFGDQTGPYHYYAMDV
VL: QSALTQPASVSGSPGQSITISCTGSSGDIGGYNAVSWYQHHPGKAPKLMIYEVTSRPSGVSDRFSASRSGDTASLTVSGLQAEDEAHYYCCSFADSNILI

Columns and labels:
FL4-06 B-m2-CL1+5-GCN4b = target: T1, FL4-06 B-m2-CL1+5-GCN4b; experiment: FACS, transfected cells
FL4-06 B-m2-CL1+5-GCN4a = target: T2, FL4-06 B-m2-CL1+5-GCN4a; experiment: FACS, transfected cells
[1] = target: T3, Mal2506-04 B-m2-CL1+5-GCN4a; experiment: FACS, transfected cells
Mal2506-04 B-m2 = target: T4, Mal2506-04 B-m2; experiment: FACS, transfected cells
FL4-06 B-m2 = FL4-06 B-m2 (influenza B virus, UniProt P03461 6-574); experiment: FACS, transfected cells
FL4-06 B-m2-CL1+5 = target: T5, FL4-06 B-m2-CL1+5; experiment: FACS, transfected cells
[2] = target: T6, Mal2506-04 B-m2-CL1+5-GCN4b; experiment: FACS, transfected cells
Mal2506-04 B-m2-CL1+5 = target: T7, Mal2506-04 B-m2-CL1+5; experiment: FACS, transfected cells
[3] = target: mini4 cluster11+5 (A/Brisbane/59/2007) (influenza A virus H1N1, UniProt A8C8J4 18-565); experiment: FACS on HEK293F
[4] = target: mini4 cluster11 (A/Brisbane/59/2007) (influenza A virus H1N1, UniProt A8C8J4 18-565); experiment: FACS on HEK293F
[5] = target: mini3 cluster11+5 (A/Brisbane/59/2007) (influenza A virus H1N1, UniProt A8C8J4 18-565); experiment: FACS on HEK293F
[6] = target: mini3 cluster11 (A/Brisbane/59/2007) (influenza A virus H1N1, UniProt A8C8J4 18-565); experiment: FACS on HEK293F
HK68 H3m2-cl9+10+11+12 = HK68 H3m2-cl9+10+11+12 (influenza A virus H3N2, UniProt Q91MA7 17-566); experiment: FACS on HEK293F [D00014 FIG. 10B]

Binder	binding result (FL4-06 B-m2-CL1+5-GCN4b)	binding result (FL4-06 B-m2-CL1+5-GCN4a)	binding result [1]	binding result (Mal2506-04 B-m2)	binding result (FL4-06 B-m2)	binding result (FL4-06 B-m2-CL1+5)	binding result [2]	binding result (Mal2506-04 B-m2-CL1+5)	binding result [3]	binding result [4]	binding result [5]	binding result [6]	binding result (HK68 H3m2-cl9+10+11+12)
B1	no binding	no binding	no binding	no binding	no binding	no binding	no binding	no binding	–	–	–	–	–
B2	–	–	–	–	–	–	–	–	no binding (tested: 5 ug/ml)	no binding (tested: 5 ug/ml)	no binding (tested: 5 ug/ml)	no binding (tested: 5 ug/ml)	no binding (tested: 5 ug/ml)
